Reference: patent publication US20190112365A1 (EISAI R AND D MANAGEMENT, published 2019)
Changes are numbered by the printed parent chain. Read-outs that look alike come from different tables or passages of the source. Values belong to the binder of their own block, whether it stands above or below them.

Assays:
[1] = molecular target: T1, Human Tau 2N4R, wild type, recombinant full length (human, UniProt P10636 2-758); test: direct ELISA on coated 2N4R Tau
T1 construct: Full length 2N4R isoform; monomer in SPR and ELISA; heparin-induced aggregates or seeds in the functional assays; also called Tau441; Tau-441
T1 sequence (P10636 other isoform, or with tags, fused parts or gaps limits assumed): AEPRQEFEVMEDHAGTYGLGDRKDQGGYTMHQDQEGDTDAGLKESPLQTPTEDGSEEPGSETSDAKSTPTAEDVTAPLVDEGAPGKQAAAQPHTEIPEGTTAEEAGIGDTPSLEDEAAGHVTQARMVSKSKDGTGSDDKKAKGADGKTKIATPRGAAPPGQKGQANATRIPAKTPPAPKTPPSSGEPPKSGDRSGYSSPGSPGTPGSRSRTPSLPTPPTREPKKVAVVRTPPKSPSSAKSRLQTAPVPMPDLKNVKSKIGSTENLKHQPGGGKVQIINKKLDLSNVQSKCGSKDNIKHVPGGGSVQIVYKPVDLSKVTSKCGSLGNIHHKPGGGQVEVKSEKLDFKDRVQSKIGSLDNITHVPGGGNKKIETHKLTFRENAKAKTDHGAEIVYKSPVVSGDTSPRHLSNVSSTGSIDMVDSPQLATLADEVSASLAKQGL
Protocol: To test direct binding to Tau, 2N4R Tau was coated on 96-well plates and various concentrations of humanized mAbs were added to the wells. MAbs bound to Tau were detected with either an HRP-conjugated anti-mouse antibody (mouse [ms]7G6) or anti-human antibody (remaining samples). Samples were incubated for 1 h at room temperature in 96-well plates coated with 2N4R Tau. Following washing, HRP-conjugated anti-mouse or anti-human detection antibodies were added to the wells. The anti-mouse antibody was used to detect ms7G6. The amount of HRP activity in each well was measured by QuantaBlu fluorescent substrate and the RFUs were detected by a SpectraMax M5 plate reader.
Tau binding was analyzed by a direct ELISA as above. Samples were incubated for 1 hour at room temperature in 96-well plates coated with wild-type 2N4R Tau. After a wash step, HRP-conjugated anti-mouse or anti-human detection antibodies were added to the wells. The anti-mouse antibody was used to detect ms7G6. The amount of HRP activity in each well was measured by QuantaBlu fluorescent substrate and the RFUs were detected by a SpectraMax M5 plate reader. […] Therefore, Vκ Glu34 was critical for antigen binding.

[2] = molecular target: T1, Human Tau 2N4R, wild type, recombinant …; test: SPR, streptavidin capture; against 7G6-HCzu8-LCzu6
Protocol: (§1) 400 μg of each antibody was diluted to 2 mg/mL and buffer-exchanged into 0.1 M sodium bicarbonate, pH 8.3 using 0.5 mL Zeba™ 40 kDa MWCO desalting columns (Thermo). NHS-PEG4-biotin, prepared immediately before use by dissolving in water to a 20 mM final stock concentration, was added to antibodies at a 5:1 molar ratio (biotin:MAb) and conjugated for 1 hr at room temperature. Excess biotin was removed by two sequential buffer exchanges into 1×DPBS using 0.5 mL Zeba™ 40 kDa MWCO desalting columns. For the BIAcore™ assay, antibodies were diluted to 2 μg/mL in PBS-P+/0.2% BSA (the same preparation used for the running buffer), centrifuged at 14,000 g for 5 min at room temperature, and the supernatant transferred to a new tube. Injection time was subsequently determined for each antibody to achieve a capture level of ˜225 RU.
(§2) Biotinylated humanized and mouse mAbs were captured on a streptavidin-coated chip and kₐ, kd, and KD were determined for binding to Tau (Table 11). […] The affinity of 7G6-HCzu8-LCzu6, 7G6-HCzu24-LCzu15, 7G6-HCzu24-LCzu18, 7G6-HCzu25-LCzu15, and 7G6-HCzu25-LCzu18 were all similar.

[3] = molecular target: T1, Human Tau 2N4R, wild type, recombinant …; test: SPR BIAcore, biotinylated mAb on streptavidin (CAP) chip, single cycle, 1:1 Langmuir
Protocol: as §1, §2

[4] = molecular target: T1, Human Tau 2N4R, wild type, recombinant …; test: direct ELISA on coated 2N4R Tau; remark: listed apart in the source
[5] = molecular target: T1, Human Tau 2N4R, wild type, recombinant …; test: SPR BIAcore, anti-human capture, monomeric Tau, 1:1 Langmuir
Protocol: All experiments were performed using a BIAcore™ T-100 instrument (GE Healthcare). 10 μL anti-human IgG (monoclonal mouse anti-human Fc) from human antibody capture kit (GE Healthcare) was diluted to 25 μL/mL in 200 μL final immobilization buffer (10 mM sodium acetate, pH 5.0). The flow rate was set to 5 μL/min, flowpath 1. Fifty μL N-hydroxysuccinamide (NETS) and 50 μL 1-ethyl-3-(3-dimethylaminopropyl) carbidiimide (EDC) were mixed and injected for 420 sec to activate the CM5 chip surface. The diluted antibody was injected for 360 seconds followed by 1 M ethanolamine for 420 seconds. The flowpath was then switched to flowpath 2. A new EDC/NHS mixture was prepared and the procedure was repeated for flow cell 2. The surface was conditioned by 2 injections of 30 sec using flowpath 1, 2 at 30 μL/min of 3M MgCl₂. For the anti-mouse surface, 10 μL anti-mouse IgG (polyclonal rabbit anti-mouse IgG) from mouse antibody capture kit (GE Healthcare) was diluted to 30 μL/mL in 324 μL final immobilization buffer (10 mM sodium acetate, pH 5.0). The flow rate was set to 5 μL/min, flowpath 3. Fifty μL NHS and 50 μL EDC were mixed and injected for 420 sec to activate the chip surface. The diluted antibody was injected for 420 sec. 1 M ethanolamine was injected for 420 sec. Flow path was switched to flowpath 4. A new EDC/NHS mixture was prepared and the procedure was repeated for flow cell 4. The surface was conditioned by 2 injections of 30 sec using flowpath 3, 4 at 30 μL/min of 10 mM glycine, pH 1.7.
Tau binding for humanized mAbs was analyzed by BIAcore™ in two different formats. The first format was performed as above, i.e. mAbs were captured with an immobilized species-specific anti-Fc antibody. […] In the second format, biotinylated mAbs were captured on a streptavidin-coated chip. This latter format allowed direct comparison of Tau binding affinity between humanized and the parental mouse antibody since the capture method was identical.
The final humanized mAbs were analyzed by BIAcore™ to determine the kₐ, kd, and KD for binding to Tau as above (Table 10).

[6] = molecular target: T1, Human Tau 2N4R, wild type, recombinant …; test: SPR, streptavidin capture; against 7G6-HCzu24 and 7G6-HCzu25 mAbs
Protocol: as §1, §2

- binding result [1]: no binding
B1: 7G6-HCzu5-LCzu9 (antibody, human IgG1, kappa, V domains shown)
VH: QVQLVQSGAEVKKPGASVKVSCKASGYTFTTYWITWVRQAPGQGLEWMGDIYPGSSISNYNEKFKSRVTMTVDTSTSTAYMELSSLRSEDTAVYYCAREDGYDAWFAYWGQGTLVTVSS
VL: DVVMTQSPLSLPVTLGQPASISCRSSQSIVHSNGNTYLNWFQQRPGQSPRRLISKVSNRFSGVPDRFSGSGSGTDFTLKISRVEAEDVGVYYCFQGSHVPFTFGQGTKLEIKR
notes: humanized, human IgG1 kappa; also called 7G6-LCzu9

- fold drop in affinity [2]: < 2 fold
- Kd [3]: 0.138 nM
- koff [3]: 0.000313 s⁻¹
- kon [3]: 2.28e+06 M⁻¹ s⁻¹
B2: 7G6-HCzu8-LCzu21 (antibody, human IgG1, kappa, V domains shown)
VH: B1 VH with N61A, E62Q, K65Q, S66G, V72R, A79V
VL: B1 VL with V30L, N39E, R51L
modifications: N-terminal pyroglutamic acid
notes: humanized, human IgG1 kappa

- binding result [4]: no binding
B3: 7G6-HCzu12-LCzu17 (antibody, human IgG1, kappa, V domains shown)
VH: EVQLLESGGGLVQPGGSLRLSCAASGYTFTTYWITWVRQAPGKGLEWVGDIYPGSSICNYNEKFKSRFTISVDNSKSTAYLQMNSLRAEDTAVYYCAREDGYDAWFAYWGQGTLVTVSS
VL: DVQMTQSPSSLSASVGDRVTITCRSSQSIVHSNGNTYLNWYQQKPGKAPKLLISKVSNRFSGVPSRFSGSGSGTDFTLTISSLQPEDFATYYCFQGSHVPFTFGQGTKLEIKR
notes: humanized, human IgG1 kappa; also called 7G6-LCzu17

- Kd [5]: 0.22 nM
- koff [5]: 0.00037 s⁻¹
- kon [5]: 1.71e+06 M⁻¹ s⁻¹
- fold drop in affinity [6]: ~2 fold
- Kd [3]: 0.182 nM
- koff [3]: 0.00039 s⁻¹
- kon [3]: 2.14e+06 M⁻¹ s⁻¹
B4: 7G6-HCzu23-LCzu18 (antibody, human IgG1, kappa)
heavy: not shown
light: DIQMTQSPSSLSASVGDRVTITCRSSQSILHSNGNTYLEWYQQKPGKAPKLLISKVSNRFSGVPSRFSGSGSGTDFTLTISSLQPEDFATYYCFQGSHVPFTFGQGTKLEIKRTVAAPSVFIFPPSDEQLKSGTASVVCLLNNFYPREAKVQWKVDNALQSGNSQESVTEQDSKDSTYSLSSTLTLSKADYEKHKVYACEVTHQGLSSPVTKSFNRGEC
notes: humanized, human IgG1 kappa
